According to paper doi:10.1101/2021.04.29.441928:

How the values were obtained:
Assay in all cases: co-IP
CD4 K452A (mouse) = CD4 K452A (mouse) (UniProt P06332)
CD4 R449A (mouse) = CD4 R449A (mouse) (UniProt P06332)
CD4 R426A (mouse) = CD4 R426A (mouse) (UniProt P06332)
CD4 WT (mouse) = CD4 WT (mouse) (UniProt P06332)
CD4 Dbl (mouse) = CD4 Dbl (mouse) (UniProt P06332)

Chain of Lck (P06240 whole entry): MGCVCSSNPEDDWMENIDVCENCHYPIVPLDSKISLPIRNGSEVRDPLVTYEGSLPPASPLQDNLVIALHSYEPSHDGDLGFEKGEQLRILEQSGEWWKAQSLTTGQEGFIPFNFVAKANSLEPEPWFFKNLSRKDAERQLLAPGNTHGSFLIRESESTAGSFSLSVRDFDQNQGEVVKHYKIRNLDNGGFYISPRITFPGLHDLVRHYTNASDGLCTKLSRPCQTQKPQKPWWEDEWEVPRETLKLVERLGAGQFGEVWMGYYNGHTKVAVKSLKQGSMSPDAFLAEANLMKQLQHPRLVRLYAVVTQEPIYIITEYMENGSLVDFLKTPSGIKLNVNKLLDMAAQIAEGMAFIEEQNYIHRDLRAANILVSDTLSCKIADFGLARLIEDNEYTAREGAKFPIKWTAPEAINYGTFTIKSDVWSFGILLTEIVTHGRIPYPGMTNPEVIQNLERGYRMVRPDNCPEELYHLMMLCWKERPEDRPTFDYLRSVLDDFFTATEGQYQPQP

Substance: Lck (from UniProt P06240 1-509) (enzyme)
- total AUC of the raw Lck signal co-IP'd with CD4 (CD4 K452A (mouse)): 2380
- total AUC of the raw Lck signal co-IP'd with CD4 (CD4 R449A (mouse)): 2640
- total AUC of the raw Lck signal co-IP'd with CD4 (CD4 R426A (mouse)): 2920
- total AUC of the raw Lck signal co-IP'd with CD4 (CD4 WT (mouse)): 2630
- total AUC of the raw Lck signal co-IP'd with CD4 (CD4 Dbl (mouse)): 2160
